Measured values: the supplement of paper PMC11246515
± gives the standard deviation of the averaged measurements.

Assay: total protein half-life in vivo (active degradation + dilution); higher = more stable protein
[1] = E. coli NCM3722 delta-clpP, growth: N-lim chemostat, doubling time 6 h
[2] = E. coli NCM3722 delta-hslV, growth: N-lim chemostat, doubling time 6 h
[3] = wild type E. coli NCM3722, growth: C-lim chemostat, doubling time 6 h
[4] = wild type E. coli NCM3722, growth: C-lim chemostat, doubling time 12 h
[5] = wild type E. coli NCM3722, growth: N-lim chemostat, doubling time 6 h
[6] = wild type E. coli NCM3722, growth: N-lim chemostat, doubling time 12 h
[7] = wild type E. coli NCM3722, growth: P-lim chemostat, doubling time 6 h
[8] = wild type E. coli NCM3722, growth: P-lim chemostat, doubling time 12 h
[9] = E. coli NCM3722 delta-lon, growth: N-lim chemostat, doubling time 6 h
[10] = E. coli NCM3722 delta-smpB, growth: N-lim chemostat, doubling time 6 h
[11] = wild type E. coli NCM3722, growth: C-lim chemostat, doubling time 3 h
[12] = E. coli NCM3722 delta-clpP delta-lon delta-hslV, growth: N-lim chemostat, doubling time 6 h

Row | Sequence | total protein half-life in vivo [1] [h] | total protein half-life in vivo [2] [h] | total protein half-life in vivo [3] [h] | total protein half-life in vivo [4] [h] | total protein half-life in vivo [5] [h] | total protein half-life in vivo [6] [h] | total protein half-life in vivo [7] [h] | total protein half-life in vivo [8] [h] | total protein half-life in vivo [9] [h] | total protein half-life in vivo [10] [h] | total protein half-life in vivo [11] [h] | total protein half-life in vivo [12] [h]
1 | MSGKPAARQGDMTQYGGSIVQGSAGVRIGAPTGVACSVCPGGVTSGHPVNPLLGAKVLPGETDIALPGPLPFILSRTYSSYRTKTPAPVGSLGPGWKMPADIRLQLRDNTLILSDNGGRSLYFEHLFPGEDGYSRSESLWLVRGGVAKLDEGHRLAALWQALPEELRLSPHRYLATNSPQGPWWLLGWCERVPEADEVLPAPLPPYRVLTGLVDRFGRTQTFHREAAGEFSGEITGVTDGAWRHFRLVLTTQAQRAEEARQQAISGGTEPSAFPDTLPGYTEYGRDNGIRLSAVWLTHDPEYPENLPAAPLVRYGWTPRGELAVVYDRSGKQVRSFTYDDKYRGRMVAHRHTGRPEIRYRYDSDGRVTEQLNPAGLSYTYQYEKDRITITDSLDRREVLHTQGEAGLKRVVKKEHADGSVTQSQFDAVGRLRAQTDAAGRTTEYSPDVVTGLITRITTPDGRASAFYYNHHNQLTSATGPDGLELRREYDELGRLIQETAPDGDITRYRYDNPHSDLPCATEDATGSRKTMTWSRYGQLLSFTDCSGYVTRYDHDRFGQMTAVHREEGLSQYRAYDSRGQLIAVKDTQGHETRYEYNIAGDLTAVIAPDGSRNGTQYDAWGKAVRTTQGGLTRSMEYDAAGRVIRLTSENGSHTTFRYDVLDRLIQETGFDGRTQRYHHDLTGKLIRSEDEGLVTHWHYDEADRLTHRTVKGETAERWQYDERGWLTDISHISEGHRVAVHYRYDEKGRLTGERQTVHHPQTEALLWQHETRHAYNAQGLANRCIPDSLPAVEWLTYGSGYLAGMKLGDTPLVEYTRDRLHRETLRSFGRYELTTAYTPAGQLQSQHLNSLLSDRDYTWNDNGELIRISSPRQTRSYSYSTTGRLTGVHTTAANLDIRIPYATDPAGNRLPDPELHPDSTLSMWPDNRIARDAHYLYRYDRHGRLTEKTDLIPEGVIRTDDERTHRYHYDSQHRLVHYTRTQYEEPLVESRYLYDPLGRRVAKRVWRRERDLTGWMSLSRKPQVTWYGWDGDRLTTIQNDRSRIQTIYQPGSFTPLIRVETATGELAKTQRRSLADALQQSGGEDGGSVVFPPVLVQMLDRLESEILADRVSEESRRWLASCGLTVEQMQNQMDPVYTPARKIHLYHCDHRGLPLALISTEGATAWCAEYDEWGNLLNEENPHQLQQLIRLPGQQYDEESGLYYNRHRYYDPLQGRYITQDPIGLKGGWNLYGYQLNPISDIDPLGLSMWEDAKSGACTNGLCGTLSAMIGPDKFDSIDSTAYDALNKINSQSICEDKEFAGLICKDNSGRYFSTAPNRGERKGSYPFNSPCPNGTEKVSAYHTHGADSHGEYWDEIFSGKDEKIVKSKDNNIKSFYLGTPSGNFKAIDNHGKEITNRKGLPNVCRVHGNM | 5.71 | 6.16 ± 0.29 | 5.99 ± 0.77 | 15.1 | 5.88 | 12.5 ± 0.6 | 4.38 | 13.7 | – | – | – | –
2 | MSGLKQELGLAQGIGLLSTSLLGTGVFAVPALAALVAGNNSLWAWPVLIILVFPIAIVFAILGRHYPSAGGVAHFVGMAFGSRLERVTGWLFLSVIPVGLPAALQIAAGFGQAMFGWHSWQLLLAELGTLALVWYIGTRGASSSANLQTVIAGLIVALIVAIWWAGDIKPANIPFPAPGNIELTGLFAALSVMFWCFVGLEAFAHLASEFKNPERDFPRALMIGLLLAGLVYWGCTVVVLHFDAYGEKMAAAASLPKIVVQLFGVGALWIACVIGYLACFASLNIYIQSFARLVWSQAQHNPDHYLARLSSRHIPNNALNAVLGCCVVSTLVIHALEINLDALIIYANGIFIMIYLLCMLAGCKLLQGRYRLLAVVGGLLCVLLLAMVGWKSLYALIMLAGLWLLLPKRKTPENGITT | – | – | – | – | – | – | 4.1 | 12 | 3.09 | 5.32 | – | –
3 | MSGLPLISRRRLLTAMALSPLLWQMNTAHAAAIDPNRIVALEWLPVELLLALGIVPYGVADTINYRLWVSEPPLPDSVIDVGLRTEPNLELLTEMKPSFMVWSAGYGPSPEMLARIAPGRGFNFSDGKQPLAMARKSLTEMADLLNLQSAAETHLAQYEDFIRSMKPRFVKRGARPLLLTTLIDPRHMLVFGPNSLFQEILDEYGIPNAWQGETNFWGSTAVSIDRLAAYKDVDVLCFDHDNSKDMDALMATPLWQAMPFVRAGRFQRVPAVWFYGATLSAMHFVRVLDNAIGGKA | – | 6.62 | 5.86 | 12.2 | 5.85 | 12 ± 1.3 | – | – | 6.51 ± 1.4 | 3.92 ± 1.1 | 2.71 | –
4 | MSGQGKRLMVMAGGTGGHVFPGLAVAHHLMAQGWQVRWLGTADRMEADLVPKHGIEIDFIRISGLRGKGIKALIAAPLRIFNAWRQARAIMKAYKPDVVLGMGGYVSGPGGLAAWSLGIPVVLHEQNGIAGLTNKWLAKIATKVMQAFPGAFPNAEVVGNPVRTDVLALPLPQQRLAGREGPVRVLVVGGSQGARILNQTMPQVAAKLGDSVTIWHQSGKGSQQSVEQAYAEAGQPQHKVTEFIDDMAAAYAWADVVVCRSGALTVSEIAAAGLPALFVPFQHKDRQQYWNALPLEKAGAAKIIEQPQLSVDAVANTLAGWSRETLLTMAERARAASIPDATERVANEVSRVARA | 6.19 ± 0.33 | 6.2 ± 0.14 | 6.82 ± 0.71 | 10.9 ± 0.94 | 6.21 ± 0.43 | 12.6 ± 0.14 | 6.05 ± 0.2 | 11.6 ± 0.54 | 6.36 ± 0.52 | 6.16 ± 0.19 | 3.02 ± 0.13 | 5.45 ± 0.24
5 | MSHQHTTQTSGQGMLERVFKLREHGTTARTEVIAGFTTFLTMVYIVFVNPQILGVAGMDTSAVFVTTCLIAAFGSIMMGLFANLPVALAPAMGLNAFFAFVVVQAMGLPWQVGMGAIFWGAIGLLLLTIFRVRYWMIANIPVSLRVGITSGIGLFIGMMGLKNAGVIVANPETLVSIGNLTSHSVLLGILGFFIIAILASRNIHAAVLVSIVVTTLLGWMLGDVHYNGIVSAPPSVMTVVGHVDLAGSFNLGLAGVIFSFMLVNLFDSSGTLIGVTDKAGLADEKGKFPRMKQALYVDSISSVTGSFIGTSSVTAYIESSSGVSVGGRTGLTAVVVGLLFLLVIFLSPLAGMVPGYAAAGALIYVGVLMTSSLARVNWQDLTESVPAFITAVMMPFSFSITEGIALGFISYCVMKIGTGRLRDLSPCVIIVALLFILKIVFIDAH | 6.107 ± 0.041 | 5.86 ± 0.14 | 5.56 ± 0.18 | 12.7 ± 2.2 | 6.02 ± 0.079 | – | 5.99 ± 0.52 | 11.2 ± 0.99 | 5.93 | 5.32 ± 0.85 | – | 6.67 ± 0.81
6 | MSHQLTFADSEFSSKRRQTRKEIFLSRMEQILPWQNMVEVIEPFYPKAGNGRRPYPLETMLRIHCMQHWYNLSDGAMEDALYEIASMRLFARLSLDSALPDRTTIMNFRHLLEQHQLARQLFKTINRWLAEAGVMMTQGTLVDATIIEAPSSTKNKEQQRDPEMHQTKKGNQWHFGMKAHIGVDAKSGLTHSLVTTAANEHDLNQLGNLLHGEEQFVSADAGYQGAPQREELAEVDVDWLIAERPGKVRTLKQHPRKNKTAINIEYMKASIRARVEHPFRIIKRQFGFVKARYKGLLKNDNQLAMLFTLANLFRADQMIRQWERSH [P0CE51] | – | – | 0.676 | 3.18 | 0.532 | – | 0.426 | 0.648 | – | 0.495 | > 4 | 3.8 ± 0.34
7 | MSHSSAPERATGAVITDWRPEDPAFWQQRGQRIASRNLWISVPCLLLAFCVWMLFSAVAVNLPKVGFNFTTDQLFMLTALPSVSGALLRVPYSFMVPIFGGRRWTAFSTGILIIPCVWLGFAVQDTSTPYSVFIIISLLCGFAGANFASSMANISFFFPKQKQGGALGLNGGLGNMGVSVMQLVAPLVVSLSIFAVFGSQGVKQPDGTELYLANASWIWVPFLAIFTIAAWFGMNDLATSKASIKEQLPVLKRGHLWIMSLLYLATFGSFIGFSAGFAMLSKTQFPDVQILQYAFFGPFIGALARSAGGALSDRLGGTRVTLVNFILMAIFSGLLFLTLPTDGQGGSFMAFFAVFLALFLTAGLGSGSTFQMISVIFRKLTMDRVKAEGGSDERAMREAATDTAAALGFISAIGAIGGFFIPKAFGSSLALTGSPVGAMKVFLIFYIACVVITWAVYGRHSKK | – | – | – | – | – | 8.46 | – | – | – | – | – | –
8 | MSHVELQPGFDFQQAGKEVLAIERECLAELDQYINQNFTLACEKMFWCKGKVVVMGMGKSGHIGRKMAATFASTGTPSFFVHPGEAAHGDLGMVTPQDVVIAISNSGESSEITALIPVLKRLHVPLICITGRPESSMARAADVHLCVKVAKEACPLGLAPTSSTTATLVMGDALAVALLKARGFTAEDFALSHPGGALGRKLLLRVNDIMHTGDEIPHVKKTASLRDALLEVTRKNLGMTVICDDNMMIEGIFTDGDLRRVFDMGVDVRQLSIADVMTPGGIRVRPGILAVEALNLMQSRHITSVMVADGDHLLGVLHMHDLLRAGVV | 4.95 ± 1.9 | 4.36 ± 0.2 | 5.27 ± 0.15 | 10.3 ± 2.3 | 4.29 ± 0.37 | 7.36 ± 0.41 | 5.827 ± 0.055 | 11.6 ± 0.54 | 4.95 ± 0.44 | 4.2 ± 0.2 | 2.92 ± 0.13 | –
9 | MSIISTKYLLQDAQANGYAVPAFNIHNAETIQAILEVCSEMRSPVILAGTPGTFKHIALEEIYALCSAYSTTYNMPLALHLDHHESLDDIRRKVHAGVRSAMIDGSHFPFAENVKLVKSVVDFCHSQDCSVEAELGRLGGVEDDMSVDAESAFLTDPQEAKRFVELTGVDSLAVAIGTAHGLYSKTPKIDFQRLAEIREVVDVPLVLHGASDVPDEFVRRTIELGVTKVNVATELKIAFAGAVKAWFAENPQGNDPRYYMRVGMDAMKEVVRNKINVCGSANRISA [P0AB74] | – | – | 3.2 | 4.72 | – | – | – | – | – | – | 2.35 ± 1.1 | > 8
10 | MSIKLIAVDMDGTFLSDQKTYNRERFMAQYQQMKAQGIRFVVASGNQYYQLISFFPEIANEIAFVAENGGWVVSEGKDVFNGELSKDAFATVVEHLLTRPEVEIIACGKNSAYTLKKYDDAMKTVAEMYYHRLEYVDNFDNLEDIFFKFGLNLSDELIPQVQKALHEAIGDIMVSVHTGNGSIDLIIPGVHKANGLRQLQKLWGIDDSEVVVFGDGGNDIEMLRQAGFSFAMENAGSAVVAAAKYRAGSNNREGVLDVIDKVLKHEAPFDQ | 2.026 ± 0.013 | 1.78 ± 0.4 | 3.96 ± 0.16 | 6.88 ± 0.18 | 2.08 ± 0.059 | 2.73 ± 0.66 | 2.7 ± 0.7 | 7.59 ± 3.2 | 2.53 ± 0.083 | 1.92 ± 0.13 | 2.44 ± 0.25 | 4.81 ± 0.67
11 | MSIKTIKYFSTIIVAVVAVLAGWWLWNYYMQSPWTRDGKIRAEQVSITPQVSGRIVELNIKDNQLVNAGDLLLTIDKTPFQIAELNAQAQLAKAQSDLAKANNEANRRRHLSQNFISAEELDTANLNVKAMQASVDAAQATLKQAQWQLAQTEIRAPVSGWVTNLTTRIGDYADTGKPLFALVDSHSFYVIGYFEETKLRHIREGAPAQITLYSDNKTLQGHVSSIGRAIYDQSVESDSSLIPDVKPNVPWVRLAQRVPVRFALDKVPGDVTLVSGTTCSIAVGQ | 4.89 ± 0.55 | 6.39 ± 0.71 | 6.64 ± 0.59 | 11.2 ± 1.9 | 6.093 ± 0.06 | 14.4 ± 1.4 | 6.58 ± 0.25 | 12.5 ± 0.34 | 6.46 ± 0.5 | 5.645 ± 0.01 | 3.43 ± 0.24 | 6.427 ± 0.064
